This is an account of results in PMC8727931, “The crystal structure of the FAM134B–GABARAP complex provides mechanistic insights into the selective binding of FAM134 to the GABARAP subfamily” (FEBS Open Bio, 2021).

No end group written: not given here.

Holding throughout (details): both partners purified
The target in experiment [1] is T1, GABARAPL1 (UniProt Q8R3R8 1-117).
T1 construct: GABARAPL1; source: E. coli BL21 (DE3), purified
Put plainly: SEC-MALS; Superose 12 10/300GL column; 100 mM NaCl, 50 mM Tris/HCl pH 7.5, 1 mM DTT, 1 mM EDTA; proteins mixed at a 1:1 molar ratio. Background: Size exclusion chromatography separates by hydrodynamic size, large species first.

A further experiment concerns the target LC3B (UniProt Q9CQV6 1-120). The description is as above.
For experiment [2], the target named is T2, GABARAP (recombinant, for ITC, SEC and crystallization) (UniProt Q9DCD6 1-117).
T2 construct: GABARAP; also called recombinant GABARAP protein; source: E. coli BL21 (DE3), purified
The experiment is described as follows: ITC; VP-ITC, 25 °C; 50 mM Tris/HCl pH 7.5, 100 mM NaCl, 1 mM DTT, 1 mM EDTA; GABARAP or LC3A (350 uM) injected into Trx-tagged FAM134B (35 uM) in the cell; one-site binding model. In general terms: In ITC the heat of successive injections is recorded.

The target in experiment [3] is T3, LC3A (recombinant, for ITC) (UniProt Q91VR7 1-121).
T3 construct: LC3A; source: E. coli BL21 (DE3), purified
The description is as above.

For experiment [4], the target named is T1, GABARAPL1. The experiment is described as follows: SEC; FAM134A mixed with GABARAPL1 or LC3B at a 1:1 molar ratio; qualitative.

T2 sequence (Q9DCD6 whole entry): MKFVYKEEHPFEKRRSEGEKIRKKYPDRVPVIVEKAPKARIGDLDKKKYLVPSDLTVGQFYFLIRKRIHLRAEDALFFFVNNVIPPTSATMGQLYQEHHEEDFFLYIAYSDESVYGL

B1: Trx-tagged FAM134B LIR (aa 451-476) (domain or fragment, UniProt Q9H6L5 451-476, looked up)
chain: EGDDFELLDQSELDQIESELGLTQDQ
modifications: also: Trx-tagged
notes: FAM134B (reticulophagy regulator 1), LIR and C-terminal extension, residues 451-476; 451-476 is what the results give for FAM134B LIR; Named 'Trx-tagged FAM134B' for ITC; I take the same construct for SEC-MALS; source: E. coli BL21 (DE3), purified (Ni2+-NTA, size-exclusion chromatography); not shown: Trx-His6, N-terminal, kept
As usually defined, the Kd is the equilibrium constant for the complex coming apart. B1: the binding result with GABARAPL1 [1] and with LC3B was “binds” in each case. The Kd in experiment [2] is 42 nM; in experiment [3], about 376 nM.

B2: human FAM134A fragment (residues 488-513) (domain or fragment)
chain: TTEDFELLDQGELEQLNAELGLEPET
notes: FAM134A, human, residues 488-513; source: E. coli BL21 (DE3), purified
On to B2, for which, in the experiment with GABARAPL1 [4], the binding result is “binds”.
